Test results taken from US20250059285A1 (ARGENX, published 2025).

Key:
[1] = target: T1, human Gal10-His (human, UniProt Q05315 2-142, limits assumed); assay: SPR, summary table, human Gal10
T1 construct: also called hGal10-His; human Gal10-His tagged; not shown: His tag
T1 sequence: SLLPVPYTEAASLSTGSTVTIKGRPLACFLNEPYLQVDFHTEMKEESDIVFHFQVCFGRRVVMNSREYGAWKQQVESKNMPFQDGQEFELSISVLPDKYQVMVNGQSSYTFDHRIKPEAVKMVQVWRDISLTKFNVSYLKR

[2] = target: T2, cynomolgus Gal10-His (WGS isoform) (cynomolgus); assay: SPR on cynomolgus Gal10-His (WGS isoform)
T2 construct: also called cynomolgus antigen

[3] = target: T1, human Gal10-His; assay: SPR against T0 reference; sample 4 weeks at 37 C
Description: (§1) The functional active concentration of the candidates was then assessed by SPR on a Biacore 3000 instrument (FIG. 4). All samples were evaluated with methods meeting the standard qualification criteria. Aliquots were tested at predefined test concentrations against titration curves from reference samples (T0, −80° C. storage) and in the presence of quality control (QC) samples covering a range of 70-130% relative activity (% RA) towards the reference material.
(§2) comparison/reference ⁽¹⁾ samples correspond to aliquots kept at +37° C. for 4 weeks ⁽²⁾ samples correspond to aliquots kept at +5° C. for 4 weeks prior to nebulization. In brief, samples were nebulized with an Aerogen Solo active vibrating mesh nebulizer that converted a drug solution into an inhalable aerosol. Three different devices for each time-point were used per clone and results are reported by the device (nebulizer) serial number. In case of device fouling, indicated by longer nebulization times […]

[4] = target: T1, human Gal10-His; assay: SPR Biacore 3000, purified hFab on captured Gal10-His
Description: The binding properties of the selected Fab clones to human Gal10 were analyzed via a capture method established on a Biacore 3000 instrument. Two concentrations of the selected Fab clones were tested on human Gal10-His immobilized on a CM5 chip coated with a monoclonal anti-His. As controls, the clone g7B07 and g7B07_N53A were injected at the beginning and the end of the run. Briefly, a CM5 chip was coated with a monoclonal anti-His antibody (4000 RU), then a fixed concentration of the human Gal10-His (25 μg/mL) was captured on the anti-His chip before receiving two concentrations of the clones in the human Fab backbone.

[5] = target: T1, human Gal10-His; assay: SPR slope against calibrators on captured Gal10-His; T0 sample
Description: (§3) The binding properties of the seven selected clones following two weeks of temperature stress was analysed using an optimized capture method on a Biacore 3000 instrument. The binding properties of the stressed samples were determined, compared to the calibration point, and expressed as a percentage of Relative Activity (% RA).
(§4) Briefly, a capture method was set-up on a Biacore 3000 instrument. For this purpose, a CM5 chip was coated with a monoclonal anti-His antibody (4000 RU), then a fixed concentration of the human Gal10-His (25 μg/mL) was captured on the anti-His chip before receiving duplicate injections of the calibrators, QC samples and temperature stressed samples of each clone. The slope of each injected sample was then calculated using the BIA evaluation software. Concentrations of the QC samples and temperature stressed samples were back-calculated by interpolating the obtained slopes of these samples to the calibrator curve. Obtained values were within +/−20% of the nominal concentration of the tested samples and are expressed as average relative accuracy (avg % RA) (Table 13).

[6] = target: T1, human Gal10-His; assay: SPR against T0 reference; sample 4 weeks at 5 C, then nebulized
Description: as §1, §2

[7] = target: T1, human Gal10-His; assay: SPR Biacore 3000, hFab on human Gal10-His captured by anti-His CM5
[8] = target: T1, human Gal10-His; assay: SPR slope against calibrators on captured Gal10-His; sample 2 weeks at 37 C
Description: as §3, §4

[9] = target: T2, cynomolgus Gal10-His (WGS isoform); assay: SPR Biacore 3000, hFab on cynomolgus Gal10-His (WGS) captured by anti-His CM5
How it was run: (§5)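 Fab binding measured by SPR on Biacore 3000, with His-tagged human or cynomolgus (WGS isoform) Gal10 captured on an anti-His antibody-coated CM5 chip. Clones applied either at two concentrations (cynomolgus only) or as a serial dilution.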

[10] = target: T1, human Gal10-His; assay: SPR Biacore 3000, purified hFab (2 conc.) on Gal10-His captured by anti-His CM5
[11] = target: T2, cynomolgus Gal10-His (WGS isoform); assay: SPR Biacore 3000, hFab on captured cynomolgus Gal10-His (WGS); column head prints (M), the text gives nM
How it was run: as §5

B1: g23H09 (Fab) (Fab, V domains shown)
VH: EVQLLESGGGLVQPGGSLRLSCAASGFTFRSYDMSWVRQAPGKGLEWVSAIAQFQHWTYYADSVKGRFTISRDNSKNTLYLQMNSLRAEDTAVYYCATTHGIGTLGFGSWGQGTLVTVSS
VL: SYELTQPLSVSVALGQTARITCDGNNIGSKSAQWYQQKPGQAPVLVIYADEYRPEGIPERFSGSNSGNTATLTISRAQAGDEADYYCQVWDGSAAVFGGGTQLTVL
notes: same VH/VL
With B1 the Kd [1] was 5.34 nM, the koff [1] was 0.0031 s⁻¹ and the “fold better affinity than g7B07” value [2] was 7 fold. The “% relative activity by SPR” value [3] was 93%, the “fold better affinity than g7B07” value [4] was 2.8 fold and the “% Relative Activity (RA) on Biacore” value [5] was 98%. For the same binder, the “% relative activity by SPR” value [6] was 119%, the “Amplitude R0” value [7] was 722 RU and the koff [7] was 0.0031 s⁻¹. For the same binder, the kon [7] was 590000 M⁻¹ s⁻¹, the “% Relative Activity (RA) on Biacore” value [8] was 78% and the “Amplitude R0” value [9] was 589 RU. It also gave a koff [9] of 0.0095 s⁻¹, a kon [9] of 950000 M⁻¹ s⁻¹ and a Kd [10] of 3.9 nM. For the same binder, the “kd-fold drop vs g7B07” value [10] was 1.8 fold, the koff [10] was 0.0025 s⁻¹ and the kon [10] was 650000 M⁻¹ s⁻¹. It also gave a Kd [11] of 9.9 nM.
